We go through four molecules from patent publication US12679878B2, “CRF2 receptor agonists and their use in therapy” (SANOFI, priority 2020, dated 2026).

Starred links: 1 amine or outer side, 2 acyl side, 3 side chain; linkers in the order of their positions; H or OH if unused. Non-standard residues stand in square brackets, D forms with d. Groups on a side chain read outwards from the residue. *: point of attachment. C18 diacid = O=C(O)CCCCCCCCCCCCCCCCC(=O)*; γGlu = O=C(O)[C@H](CCC(=O)[*:2])N[*:1]; AEEA = NCCOCCOCC(=O)O; Aib = CC(C)(N)C(=O)O

The test addresses human corticotropin-releasing factor 2α (CRF2 α receptor) (human), Q13324. As to the kind of experiment: cell-based or functional assay.

human corticotropin-releasing factor 2α (CRF2 α receptor) (human), Q13324, sequence (Q13324 20-411): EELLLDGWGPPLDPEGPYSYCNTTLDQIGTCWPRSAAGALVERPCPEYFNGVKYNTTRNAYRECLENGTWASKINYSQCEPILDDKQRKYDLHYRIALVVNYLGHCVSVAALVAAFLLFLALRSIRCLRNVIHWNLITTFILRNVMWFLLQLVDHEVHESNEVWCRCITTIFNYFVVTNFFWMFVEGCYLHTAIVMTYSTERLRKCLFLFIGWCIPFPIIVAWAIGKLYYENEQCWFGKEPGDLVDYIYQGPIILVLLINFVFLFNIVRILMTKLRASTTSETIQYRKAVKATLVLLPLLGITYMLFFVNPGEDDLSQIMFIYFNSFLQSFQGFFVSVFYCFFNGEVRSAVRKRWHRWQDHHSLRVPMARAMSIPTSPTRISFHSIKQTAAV

B1: SEQ ID NO: 159 (peptide)
peptide: Ac-IVLSLD[dV]PIKLK([AEEA-AEEA-γGlu-C18 diacid])QILLEQERQE[Aib]QREQAEKNKQILEQV-NH2
SMILES: CC[C@H](C)[C@H](NC(C)=O)C(=O)N[C@H](C(=O)N[C@@H](CC(C)C)C(=O)N[C@@H](CO)C(=O)N[C@@H](CC(C)C)C(=O)N[C@@H](CC(=O)O)C(=O)N[C@@H](C(=O)N1CCC[C@H]1C(=O)N[C@H](C(=O)N[C@@H](CCCCN)C(=O)N[C@@H](CC(C)C)C(=O)N[C@@H](CCCCNC(=O)COCCOCCNC(=O)COCCOCCNC(=O)CC[C@H](NC(=O)CCCCCCCCCCCCCCCCC(=O)O)C(=O)O)C(=O)N[C@@H](CCC(N)=O)C(=O)N[C@H](C(=O)N[C@@H](CC(C)C)C(=O)N[C@@H](CC(C)C)C(=O)N[C@@H](CCC(=O)O)C(=O)N[C@@H](CCC(N)=O)C(=O)N[C@@H](CCC(=O)O)C(=O)N[C@@H](CCCNC(=N)N)C(=O)N[C@@H](CCC(N)=O)C(=O)N[C@@H](CCC(=O)O)C(=O)NC(C)(C)C(=O)N[C@@H](CCC(N)=O)C(=O)N[C@@H](CCCNC(=N)N)C(=O)N[C@@H](CCC(=O)O)C(=O)N[C@@H](CCC(N)=O)C(=O)N[C@@H](C)C(=O)N[C@@H](CCC(=O)O)C(=O)N[C@@H](CCCCN)C(=O)N[C@@H](CC(N)=O)C(=O)N[C@@H](CCCCN)C(=O)N[C@@H](CCC(N)=O)C(=O)N[C@H](C(=O)N[C@@H](CC(C)C)C(=O)N[C@@H](CCC(=O)O)C(=O)N[C@@H](CCC(N)=O)C(=O)N[C@H](C(N)=O)C(C)C)[C@@H](C)CC)[C@@H](C)CC)[C@@H](C)CC)C(C)C)C(C)C
Consider B1, for which the EC50 [nM], 0% HSA amounted to 1.27 nM and the EC50 [nM], 0.1% HSA stood at 27.4 nM.

B2: SEQ ID NO: 160 (peptide)
peptide: Ac-IVLSLD[dV]PIKLK([AEEA-AEEA-γGlu-C18 diacid])QILLEQERQE[Aib]EREQAETNKQILEQV-NH2
SMILES: CC[C@H](C)[C@H](NC(C)=O)C(=O)N[C@H](C(=O)N[C@@H](CC(C)C)C(=O)N[C@@H](CO)C(=O)N[C@@H](CC(C)C)C(=O)N[C@@H](CC(=O)O)C(=O)N[C@@H](C(=O)N1CCC[C@H]1C(=O)N[C@H](C(=O)N[C@@H](CCCCN)C(=O)N[C@@H](CC(C)C)C(=O)N[C@@H](CCCCNC(=O)COCCOCCNC(=O)COCCOCCNC(=O)CC[C@H](NC(=O)CCCCCCCCCCCCCCCCC(=O)O)C(=O)O)C(=O)N[C@@H](CCC(N)=O)C(=O)N[C@H](C(=O)N[C@@H](CC(C)C)C(=O)N[C@@H](CC(C)C)C(=O)N[C@@H](CCC(=O)O)C(=O)N[C@@H](CCC(N)=O)C(=O)N[C@@H](CCC(=O)O)C(=O)N[C@@H](CCCNC(=N)N)C(=O)N[C@@H](CCC(N)=O)C(=O)N[C@@H](CCC(=O)O)C(=O)NC(C)(C)C(=O)N[C@@H](CCC(=O)O)C(=O)N[C@@H](CCCNC(=N)N)C(=O)N[C@@H](CCC(=O)O)C(=O)N[C@@H](CCC(N)=O)C(=O)N[C@@H](C)C(=O)N[C@@H](CCC(=O)O)C(=O)N[C@H](C(=O)N[C@@H](CC(N)=O)C(=O)N[C@@H](CCCCN)C(=O)N[C@@H](CCC(N)=O)C(=O)N[C@H](C(=O)N[C@@H](CC(C)C)C(=O)N[C@@H](CCC(=O)O)C(=O)N[C@@H](CCC(N)=O)C(=O)N[C@H](C(N)=O)C(C)C)[C@@H](C)CC)[C@@H](C)O)[C@@H](C)CC)[C@@H](C)CC)C(C)C)C(C)C
On to B2, for which the EC50 [nM], 0% HSA worked out at 8.56 nM and the EC50 [nM], 0.1% HSA amounted to 28.9 nM.

B3: SEQ ID NO: 157 (peptide)
peptide: Ac-IVLSLD[dV]PIKLK([AEEA-AEEA-γGlu-C18 diacid])QILLEQARQK[Aib]QREQAEKNKQILEQV-NH2
SMILES: CC[C@H](C)[C@H](NC(C)=O)C(=O)N[C@H](C(=O)N[C@@H](CC(C)C)C(=O)N[C@@H](CO)C(=O)N[C@@H](CC(C)C)C(=O)N[C@@H](CC(=O)O)C(=O)N[C@@H](C(=O)N1CCC[C@H]1C(=O)N[C@H](C(=O)N[C@@H](CCCCN)C(=O)N[C@@H](CC(C)C)C(=O)N[C@@H](CCCCNC(=O)COCCOCCNC(=O)COCCOCCNC(=O)CC[C@H](NC(=O)CCCCCCCCCCCCCCCCC(=O)O)C(=O)O)C(=O)N[C@@H](CCC(N)=O)C(=O)N[C@H](C(=O)N[C@@H](CC(C)C)C(=O)N[C@@H](CC(C)C)C(=O)N[C@@H](CCC(=O)O)C(=O)N[C@@H](CCC(N)=O)C(=O)N[C@@H](C)C(=O)N[C@@H](CCCNC(=N)N)C(=O)N[C@@H](CCC(N)=O)C(=O)N[C@@H](CCCCN)C(=O)NC(C)(C)C(=O)N[C@@H](CCC(N)=O)C(=O)N[C@@H](CCCNC(=N)N)C(=O)N[C@@H](CCC(=O)O)C(=O)N[C@@H](CCC(N)=O)C(=O)N[C@@H](C)C(=O)N[C@@H](CCC(=O)O)C(=O)N[C@@H](CCCCN)C(=O)N[C@@H](CC(N)=O)C(=O)N[C@@H](CCCCN)C(=O)N[C@@H](CCC(N)=O)C(=O)N[C@H](C(=O)N[C@@H](CC(C)C)C(=O)N[C@@H](CCC(=O)O)C(=O)N[C@@H](CCC(N)=O)C(=O)N[C@H](C(N)=O)C(C)C)[C@@H](C)CC)[C@@H](C)CC)[C@@H](C)CC)C(C)C)C(C)C
In the case of B3, the EC50 [nM], 0% HSA was determined as 0.12 nM and the EC50 [nM], 0.1% HSA stood at 2.53 nM.

B4: SEQ ID NO: 158 (peptide)
peptide: Ac-IVLSLD[dV]PIKLK([AEEA-AEEA-γGlu-C18 diacid])QILLEQERQK[Aib]QREQAEKNKQILEQV-NH2
SMILES: CC[C@H](C)[C@H](NC(C)=O)C(=O)N[C@H](C(=O)N[C@@H](CC(C)C)C(=O)N[C@@H](CO)C(=O)N[C@@H](CC(C)C)C(=O)N[C@@H](CC(=O)O)C(=O)N[C@@H](C(=O)N1CCC[C@H]1C(=O)N[C@H](C(=O)N[C@@H](CCCCN)C(=O)N[C@@H](CC(C)C)C(=O)N[C@@H](CCCCNC(=O)COCCOCCNC(=O)COCCOCCNC(=O)CC[C@H](NC(=O)CCCCCCCCCCCCCCCCC(=O)O)C(=O)O)C(=O)N[C@@H](CCC(N)=O)C(=O)N[C@H](C(=O)N[C@@H](CC(C)C)C(=O)N[C@@H](CC(C)C)C(=O)N[C@@H](CCC(=O)O)C(=O)N[C@@H](CCC(N)=O)C(=O)N[C@@H](CCC(=O)O)C(=O)N[C@@H](CCCNC(=N)N)C(=O)N[C@@H](CCC(N)=O)C(=O)N[C@@H](CCCCN)C(=O)NC(C)(C)C(=O)N[C@@H](CCC(N)=O)C(=O)N[C@@H](CCCNC(=N)N)C(=O)N[C@@H](CCC(=O)O)C(=O)N[C@@H](CCC(N)=O)C(=O)N[C@@H](C)C(=O)N[C@@H](CCC(=O)O)C(=O)N[C@@H](CCCCN)C(=O)N[C@@H](CC(N)=O)C(=O)N[C@@H](CCCCN)C(=O)N[C@@H](CCC(N)=O)C(=O)N[C@H](C(=O)N[C@@H](CC(C)C)C(=O)N[C@@H](CCC(=O)O)C(=O)N[C@@H](CCC(N)=O)C(=O)N[C@H](C(N)=O)C(C)C)[C@@H](C)CC)[C@@H](C)CC)[C@@H](C)CC)C(C)C)C(C)C
As to B4, the EC50 [nM], 0% HSA is 0.42 nM and the EC50 [nM], 0.1% HSA was 5.63 nM.
